Reference: patent US20220325000A1 (SUZHOU ALPHAMAB, published 2022)

What was measured:
hTFPI antigen [1] = biological target: T1, hTFPI antigen (human); assay: competitive ELISA, FXa coated (competitor), supernatant diluted 10x
T1 construct: Self-made hTFPI used in the hybridoma screens; It may be the same protein as hTFPI161; also called human TFPI; hTFPD
Experimental: (§1) Coat with 2μg/mL FXA Protease (Neb, batch No. 0941404), after blocking with BSA, the same diluted supernatant of TFPI hybridoma cells and 50 ng/mL hTFPD (batch No. TE20140825, self-made) were added for complete incubation, followed by 1:1500 diluted mouse THETM His Tag Antibody [HRP] mAb (GenScript, batch No. 14C000744), after development by TMB, 1 M H2SO4 stop solution was added to stop developing and the value was read on the microplate reader. Using 650 nm as the reference wavelength, the OD values were read at 450 nm and 650 nm. […] The lower the OD value, the better the inhibition of the anti-TFPI antibody.
(§2) Afterwards, the supernatant of 31 7G6 subcloned cells was performed with the inhibition experiment at different dilution ratios, and the experimental method was the same as 1.2.

hTFPI antigen [2] = biological target: T1, hTFPI antigen; assay: ELISA, subclone supernatant, hTFPI, OD450
hTFPI antigen [3] = biological target: T1, hTFPI antigen; assay: competitive ELISA, FXa coated (competitor), supernatant diluted 100x
Experimental: as §1, §2

hTFPI161-Chis [4] = biological target: T2, hTFPI161-Chis (human, UniProt P10646 29-189, limits assumed); assay: ELISA, hTFPI161 coated, anti-human IgG4-HRP, four-parameter fit
T2 construct: also called human TFPI; not shown: C-terminal His tag ('Chis')
T2 sequence (looked up): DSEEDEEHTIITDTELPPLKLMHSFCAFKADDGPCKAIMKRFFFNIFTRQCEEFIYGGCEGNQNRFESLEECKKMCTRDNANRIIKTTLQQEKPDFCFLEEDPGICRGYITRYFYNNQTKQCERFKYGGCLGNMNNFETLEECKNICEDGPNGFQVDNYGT
Experimental: hTFPI161 protein was coated on the plate at 0.5 μg/well overnight at 4° C. After washing, the gradient dilution series of h7G6 antibody protein obtained in the above example was added, and incubated at 25° C±2° C. for 2 h. After washing, 1:2000 diluted Mouse Anti-Human IgG4 pFc′ antibody [HP 6023] (HRP) was added at 100 μL/well, and incubated at 25° C.±2° C. for 2 h. After washing, the development solution was added, and the absorbance was read at the wavelength of 450/650 nm. The software SotfMax Pro v5.4 was applied for data processing and mapping analysis, using four-parameter fitting, the binding curve of h7G6 antibody to hTFPI161 and EC50 value were obtained, which reflects the affinity of the antibody for hTFPI161.

hTFPI161-Chis [5] = biological target: T2, hTFPI161-Chis; assay: BLI, antibody on Protein A biosensor, hTFPI161-Chis 1.875-30 nM, 1:1 model; batch 180820DS
Experimental: (§3) In this experiment, the affinity of h7G6 for human TFPI was detected based on Bio-Layer Interferometry (BLI) technology. K2 instrument of Fortibio was used. Firstly, KN057 was diluted to […] and immobilized on Protein A biosensor (model 18-5010), then hTFPI161-Chis was diluted to 30 nM, 15 nM, 7.5 nM, 3.75 nM and 1.875 nm to combine with h7G6, respectively, and the binding signals with different intensities could be detected. The results were fitted using 1:1 model to calculate the equilibrium constant (KD) of the sample.

hTFPI161-Chis [6] = biological target: T2, hTFPI161-Chis; assay: BLI, antibody on Protein A biosensor, hTFPI161-Chis 1.875-30 nM, 1:1 model; batch 180727DS
Experimental: as §3

hTFPI161-Chis [7] = biological target: T2, hTFPI161-Chis; assay: competitive ELISA, FXa coated (competitor), 50 ng/mL hTFPI161, anti-His-HRP, four-parameter fit
Experimental: FXa Protease was coated on the plate at 0.2 μg/well overnight at 4° C., after blocking with BSA, the gradient dilution series of hu7G6 antibody protein obtained from the above example was added at 100 uL/well (50 ng/mL hTFPI161 was contained in the dilution), and the reaction was carried out at room temperature for 1 hour. After washing, 1:1500 diluted Mouse THETM His Tag Antibody [HRP] mAb was added, and the reaction was carried out at room temperature for 1 hour. After washing, the development solution was added, and the absorbance was read at the wavelength of 450/650 nm.
The software SotfMax Pro v5.4 was applied for data processing and mapping analysis, using four-parameter fitting, the inhibition curve of h7G6 antibody for FXa-TFPI and EC50 value were obtained. The results were shown in FIG. 3, in which the ordinate was OD450 and the abscissa is the concentration of h7G6 antibody protein (ng/mL); and Hu7G62-v2 antibody protein was effective in inhibiting the interaction between FXA and TFPI.

hTFPI161-Chis [8] = biological target: T2, hTFPI161-Chis; assay: BLI, antibody on Protein A biosensor, hTFPI161-Chis 1.875-30 nM, 1:1 model; mean of three batches; average of three batches
Experimental: as §3

Row | Inhibition % (hTFPI antigen [1]) [%] | OD (hTFPI antigen [2]) | Inhibition % (hTFPI antigen [3]) [%] | EC50 (hTFPI161-Chis [4]) [µg/mL] | Kd (hTFPI161-Chis [5]) [nM] | Kd (hTFPI161-Chis [6]) [nM] | IC50 (hTFPI161-Chis [7]) [µg/mL] | Kd (hTFPI161-Chis [8]) [nM] | Binder
1 | 95.2 | 1.24 | 57.9 | – | – | – | – | – | TFPI-7G6-1C12 (antibody, V domains shown, Subclone supernatant) VH: QVQLQQSGAELARPGASVKLSCKASGYSFTSYGISWVKQRTGQGLEWIGEIYPRSTNTYYNEKFMGKATLTADKSSSTAFMELRSLTSEDSAVYFCARESFYGDYGAMDFWGQGASVTVSS VL: not shown
2 | 95.1 | 1.35 | 55 | – | – | – | – | – | TFPI-7G6-5F11 (antibody, V domains shown, Subclone supernatant) VH: QVQLQQSGAELARPGASVKLSCKASGYSFTSYGISWVKQRTGQGLEWIGEIYPRSTNTYYNEKFMGKATLTADKSSSTAFMELRSLTSEDSAVYFCARESFYGDYGAMDFWGQGASVTVSS VL: not shown
3 | 95.9 | 1.25 | 62.1 | – | – | – | – | – | TFPI-7G6-5A10 (antibody, V domains shown, Subclone supernatant) VH: QVQLQQSGAELARPGASVKLSCKASGYSFTSYGISWVKQRTGQGLEWIGEIYPRSTNTYYNEKFMGKATLTADKSSSTAFMELRSLTSEDSAVYFCARESFYGDYGAMDFWGQGASVTVSS VL: not shown
4 | 95.9 | 1.27 | 62.7 | – | – | – | – | – | TFPI-7G6-2G8 (antibody, V domains shown, Subclone supernatant) VH: QVQLQQSGAELARPGASVKLSCKASGYSFTSYGISWVKQRTGQGLEWIGEIYPRSTNTYYNEKFMGKATLTADKSSSTAFMELRSLTSEDSAVYFCARESFYGDYGAMDFWGQGASVTVSS VL: not shown
5 | – | – | – | 0.0419 | 1.47 | 1.32 | 0.222 | 1.37 | Hu7G62-v2 (antibody, human IgG4 S228P, kappa, V domains shown, also called hu7G6-2v2-G4ws; h7G6 antibody) VH: QVQLVQSGAEVKKPGASVKVSCKASGYSFTSYGISWVKQAPGQGLEWIGEIYPRSTNTYYNEKFMGKATLTADKSSSTAYMELSSLRSEDTAVYYCARESFYGDYGAMDFWGQGTLVTVSS VL: DIVMTQSPLSLPVTPGEPASISCKSSQSLLESDGKTYLNWYLQKPGQSPQLLIYLVSKLDSGVPDRFSGSGSGTDFTLKISRVEAEDVGVYYCSQGTHFPRTFGQGTKVEIKR
